In test [1] the test system is α,β-tubulin. Put plainly: SPR binding of S100P to immobilised α,β-tubulin. Set-up: species or system human. The following applies: for Kd: mean ± SE, 3 experiments. From the text: The coding sequences for full length (human) α-tubulin and for N-terminal and C-terminal halves of α or β-tubulin were generated using PCR with specific primers shown in Supplementary Table S1 and sub-cloned into pET16(b) for expressing and purifying His-tagged full-length α-tubulin and His-tagged tubulin fragments in E. coli, as described previously. β-tubulin was purchased from Abcam.
For SPR binding assays, α,β-tubulin proteins described earlier were immobilised on a carboxymethylated dextran surface of a CM5 chip using BS^3 for use in Biocore X100. Recombinant S100P produced as described previously was used as a ligand in different concentrations at 20, 50, 100, 200, 1000, 2000 nM for calculation of the equilibrium dissociation constant (Kd) from the association/dissociation rate constants and from the extent of binding near equilibrium (Supplementary Table S2), as described previously. To detect the effects of tubulin peptides on the interaction of tubulin, different concentrations of tagged and untagged peptides were mixed with 1 µM S100P first and the mixtures were then applied to the tubulin-coated chip. The relative changes in kinetics and binding extents with different peptides were calculated using software provided by the manufacturer.
(Surface plasmon resonance follows binding to a sensor surface in real time, without labels.)

For test [2], the system named is Rama 37-T25 cells. Put plainly: S100P-enhanced cell migration, Rama 37-T25. The following applies: Rama 37-T25, doxycycline 1 µg/ml, 24 h. The class given is cell-based, rat. An excerpt:
(§1) Cell migration rate (%) = M/G × 100.

Test [3] deals with HeLa cells. The following applies: inducible HeLa (range stated for Rama 37 and HeLa) ref [10],[37]; cited from earlier work. An excerpt:
(§2) In our previous study, we reported that S100P enhances cell migration by binding to and affecting distribution of NMIIA filaments in HeLa and Rama 37 cells. We now sought to determine whether S100P overexpression could induce such changes in cells when NMIIA was absent. The monkey kidney COS-7 cells have been reported to lack NMIIA [28] and this was confirmed in comparison with its presence in human HeLa and rat Rama 37 cells (Figure 1A). We then generated three S100P-inducible COS-7 cell lines using doxycycline as the inducing agent, the largest increase being in clone S10 (Figure 1B ...

Test [4] deals with Rama 37 cells. The following applies: inducible Rama 37 (range stated for Rama 37 and HeLa) ref [10],[37]; cited from earlier work.
Excerpt: as §2

The subject of test [5] is α, β-tubulins. Put plainly: Pulldown assay, His-S100P beads with COS-7 cell lysates. The class given is binding, monkey. The following applies: 1 mM CaCl2 vs EGTA. As for the experimental part:
[…] After brief sonication, the lysates were centrifuged at 15,000g for 30 min to remove insoluble components. The supernatants were then applied to His-S100P columns or control column with His-binding beads only. After extensive washings with 10 mM Tris–HCl, pH 7.4, 150 mM NaCl, 0.5% (v/v) Tween 20, the bound proteins were eluted with 300 mM imidazole and then subjected to Western blotting using mouse anti-S100P mAb and anti-tubulin antibodies (R&D Systems, Abingdon, U.K.).

In test [6] the test system is tubulin. Put plainly: Co-immunoprecipitation, COS-7 S10 lysates. The following applies: S100P-induced COS-7 S10 lysates, 0.5 mM CaCl2. The class given is binding, monkey. As for the experimental part: For co-immunoprecipitations, S100P-inducible COS-7 cells were incubated with 1 µg/ml doxycycline for 16 h and lysed in RIPA buffer (Thermo Fisher Scientific, Loughborough, U.K.) with 0.5 mM CaCl2. After sonication and centrifugation as described above, control antibody (rabbit IgG from Sigma), anti-tubulin or anti-S100P were added to three separate tubes containing 0.7 ml each of cell lysate and incubated overnight at 4°C. Then 100 µl Dynabeads® ProteinG (Thermo Fisher Scientific) were added to each tube and the contents incubated for 4 h at 4°C. After extensive washings with washing buffer (10 mM Tris–HCl, pH 7.4, 150 mM NaCl, 1% (v/v) Triton X-100, 0.2 mM sodium orthovanadate), the bound proteins were eluted with 0.1 M glycine pH 2.5 and then subjected to Western blotting using the paired antibodies together with a sample of the input and the last wash.

Test [7] concerns COS-7 cells. Description: Living colour expression: YFP-S100P with CFP-EB3. The class given is cell-based, monkey. The following applies: high YFP-S100P, 24 h. As for the experimental part: S100P fused to yellow fluorescent protein (YFP), and EB3 fused to cyan fluorescent protein (CFP) (EB3-CFP) expression plasmids, pYFP-S100P and pCFP-EB3 were constructed, respectively. COS-7 cells were transiently transfected with the two plasmids and images were recorded using a LSM 5 confocal microscope 24 h after transfection. CFP: excitation = 436 nm, emission = 480 nm; YFP: excitation = 500 nm, emission = 520 nm.

Test [8] concerns HeLa-A3 cells. Description: S100P-enhanced cell migration, HeLa-A3. The class given is cell-based, human. The following applies: HeLa-A3, doxycycline 1 µg/ml, 24 h.
Excerpt: as §1

Like-named read-outs stand apart in the source and are kept apart here.

The source of these data is PMC7108782, “Direct interaction of metastasis-inducing S100P protein with tubulin causes enhanced cell migration without changes in cell adhesion” (Biochemical Journal, 2020).

B1: S100P: recombinant or doxycycline-induced overexpressed S100P protein (protein)
chain: MTELETAMGMIIDVFSRYSGSEGSTQTLTKGELKVLMEKELPGFLQSGKDKDAVDKLLKDLDANGDAQVDFSEFIVFVAAITSACHKYFEKAGLK
Usually Kd stands for the free concentration of one partner at which half of the binding sites on the other are occupied at equilibrium, for simple one-to-one binding. B1: the “calcium concentration above which complex starts to form” value in test [1] (0.15 M NaCl, 2 µM S100P) is “above 30 µM”. The “calcium concentration saturating the reaction” value in test [1] (0.15 M NaCl, 2 µM S100P) worked out at 0.2 mM. The Kd in test [1] (Kd from association/dissociation rate constants, 150mM NaCl, 0.5mM CaCl2, single cycle, S100P 20-2000 nM, CM5 chip, read-out: Kinetic dissociation constant Kd) stood at 120 ± 12 nM; in test [1] (Kd from rate constants, 150mM NaCl, 0.5mM CaCl2, multiple cycles, read-out: Kinetic dissociation constant Kd), 210 ± 90 nM; in test [1] (Kd from rate constants, 300M NaCl (so in the source), 0.5mM CaCl2, multiple cycles, read-out: Kinetic dissociation constant Kd) it was 890 ± 90 nM; in test [1] (Kd from rate constants, 500M NaCl (so in the source), 0.5mM CaCl2, multiple cycles, read-out: Kinetic dissociation constant Kd) it was 8300 ± 700 nM; in test [1] (at or near equilibrium, 300M NaCl (so in the source), 0.5mM CaCl2, multiple cycles, read-out: Equilibrium dissociation constant Kd), 1100 ± 160 nM. Moreover, the “Kinetic dissociation constant Kd” value in test [1] (Kd from rate constants, 150M NaCl (so in the source), EDTA 5mM, multiple cycles, 1L = incalculably large) was 1 L. Also, the “calcium concentration at saturation of binding” value in test [1] (SPR, Figure 2F-H) is 200 µM. Moreover, in test [1] (at or near equilibrium, 150M NaCl (so in the source), EDTA 5mM, multiple cycles, 1L = incalculably large), the “Equilibrium dissociation constant Kd” value was 1 L. Moreover, the S100P-enhanced cell migration in test [2] and in test [8] was 3–4 folds throughout. Moreover, the “fold increase in migration on S100P overexpression” value in test [3] and in test [4] was 3.2 to 4.8 fold each time. In test [5], the “α, β-tubulins captured by His-S100P” value was “detected in eluates, but only when 1 mM CaCl2 but not EGTA was originally present”. The “complex with tubulin in immunoprecipitates” value in test [6] is “immunoprecipitates produced with anti-S100P also contained tubulin”. In addition, the “distribution of peripheral MTs” value in test [7] is on record as “more dispersed distribution of cyan-labelled peripheral MTs”.
